{"source": "paper PMC11535546", "target": "VASP (UniProt P50552)", "experiment": "co-immunoprecipitation, immunoblot", "conditions": "reference: wild-type Zyxin; sites S142,S143", "data": [{"substance": "Zyxin (from UniProt Q15942) Zyxin S142A/S143A", "values": [{"measurement": "binding against the reference", "result": "lost"}]}]}
